# Measured values as given in US20230043813A1, “METHODS FOR TARGETED CELL DEPLETION” (The Regents of the University of California, priority 2019, published 2023).
# B1: ProCas9Flavi: ProCas9 with WNV linker sequence KQKKR/GGK, Flavivirus protease-sensitive caged Cas9 (SEQ ID NO:50) (protein)
# chain: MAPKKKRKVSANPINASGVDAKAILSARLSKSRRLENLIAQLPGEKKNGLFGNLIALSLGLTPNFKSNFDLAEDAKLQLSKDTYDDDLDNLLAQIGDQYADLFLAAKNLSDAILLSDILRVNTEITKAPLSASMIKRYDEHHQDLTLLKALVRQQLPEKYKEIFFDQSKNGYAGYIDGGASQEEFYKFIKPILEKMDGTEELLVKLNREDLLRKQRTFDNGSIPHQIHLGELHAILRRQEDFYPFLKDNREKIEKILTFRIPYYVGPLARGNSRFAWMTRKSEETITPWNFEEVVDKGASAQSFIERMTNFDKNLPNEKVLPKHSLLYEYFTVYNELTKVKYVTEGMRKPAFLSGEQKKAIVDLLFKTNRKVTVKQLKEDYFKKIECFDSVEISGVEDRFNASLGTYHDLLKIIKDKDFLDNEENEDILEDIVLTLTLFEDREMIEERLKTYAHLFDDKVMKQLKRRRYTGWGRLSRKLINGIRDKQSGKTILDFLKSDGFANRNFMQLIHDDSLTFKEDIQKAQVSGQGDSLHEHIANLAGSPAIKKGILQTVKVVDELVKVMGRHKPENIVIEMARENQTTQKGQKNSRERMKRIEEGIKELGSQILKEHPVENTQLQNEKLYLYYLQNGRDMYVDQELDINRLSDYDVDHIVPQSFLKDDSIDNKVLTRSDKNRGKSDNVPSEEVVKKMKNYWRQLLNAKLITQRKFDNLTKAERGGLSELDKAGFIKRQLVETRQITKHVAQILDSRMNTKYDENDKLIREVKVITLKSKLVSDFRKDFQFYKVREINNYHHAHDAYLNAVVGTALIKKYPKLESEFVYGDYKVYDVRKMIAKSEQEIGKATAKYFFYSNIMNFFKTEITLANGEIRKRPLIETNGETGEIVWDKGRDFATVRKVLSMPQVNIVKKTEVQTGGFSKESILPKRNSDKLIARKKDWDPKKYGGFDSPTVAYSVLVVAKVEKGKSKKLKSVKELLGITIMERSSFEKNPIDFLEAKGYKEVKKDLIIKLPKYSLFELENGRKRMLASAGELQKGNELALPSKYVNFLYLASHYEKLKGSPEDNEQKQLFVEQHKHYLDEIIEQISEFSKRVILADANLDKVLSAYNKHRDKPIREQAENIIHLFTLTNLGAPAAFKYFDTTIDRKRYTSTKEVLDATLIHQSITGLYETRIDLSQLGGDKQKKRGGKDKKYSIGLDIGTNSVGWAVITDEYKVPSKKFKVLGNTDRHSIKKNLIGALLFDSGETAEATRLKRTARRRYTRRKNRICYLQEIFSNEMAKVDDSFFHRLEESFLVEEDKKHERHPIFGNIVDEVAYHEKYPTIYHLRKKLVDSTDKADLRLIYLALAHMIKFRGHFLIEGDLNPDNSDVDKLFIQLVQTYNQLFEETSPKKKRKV
# B2: EF1a-ProCas9Flavi: ProCas9Flavi expressed from the strong full-length EF1a promoter, stably integrated lentiviral vector (protein)
# chain: B1 chain
# B3: CP199: Cas9 circular permutant, new start site aa 199 (SEQ ID NO:44); linker varies by experiment (protein)
# chain: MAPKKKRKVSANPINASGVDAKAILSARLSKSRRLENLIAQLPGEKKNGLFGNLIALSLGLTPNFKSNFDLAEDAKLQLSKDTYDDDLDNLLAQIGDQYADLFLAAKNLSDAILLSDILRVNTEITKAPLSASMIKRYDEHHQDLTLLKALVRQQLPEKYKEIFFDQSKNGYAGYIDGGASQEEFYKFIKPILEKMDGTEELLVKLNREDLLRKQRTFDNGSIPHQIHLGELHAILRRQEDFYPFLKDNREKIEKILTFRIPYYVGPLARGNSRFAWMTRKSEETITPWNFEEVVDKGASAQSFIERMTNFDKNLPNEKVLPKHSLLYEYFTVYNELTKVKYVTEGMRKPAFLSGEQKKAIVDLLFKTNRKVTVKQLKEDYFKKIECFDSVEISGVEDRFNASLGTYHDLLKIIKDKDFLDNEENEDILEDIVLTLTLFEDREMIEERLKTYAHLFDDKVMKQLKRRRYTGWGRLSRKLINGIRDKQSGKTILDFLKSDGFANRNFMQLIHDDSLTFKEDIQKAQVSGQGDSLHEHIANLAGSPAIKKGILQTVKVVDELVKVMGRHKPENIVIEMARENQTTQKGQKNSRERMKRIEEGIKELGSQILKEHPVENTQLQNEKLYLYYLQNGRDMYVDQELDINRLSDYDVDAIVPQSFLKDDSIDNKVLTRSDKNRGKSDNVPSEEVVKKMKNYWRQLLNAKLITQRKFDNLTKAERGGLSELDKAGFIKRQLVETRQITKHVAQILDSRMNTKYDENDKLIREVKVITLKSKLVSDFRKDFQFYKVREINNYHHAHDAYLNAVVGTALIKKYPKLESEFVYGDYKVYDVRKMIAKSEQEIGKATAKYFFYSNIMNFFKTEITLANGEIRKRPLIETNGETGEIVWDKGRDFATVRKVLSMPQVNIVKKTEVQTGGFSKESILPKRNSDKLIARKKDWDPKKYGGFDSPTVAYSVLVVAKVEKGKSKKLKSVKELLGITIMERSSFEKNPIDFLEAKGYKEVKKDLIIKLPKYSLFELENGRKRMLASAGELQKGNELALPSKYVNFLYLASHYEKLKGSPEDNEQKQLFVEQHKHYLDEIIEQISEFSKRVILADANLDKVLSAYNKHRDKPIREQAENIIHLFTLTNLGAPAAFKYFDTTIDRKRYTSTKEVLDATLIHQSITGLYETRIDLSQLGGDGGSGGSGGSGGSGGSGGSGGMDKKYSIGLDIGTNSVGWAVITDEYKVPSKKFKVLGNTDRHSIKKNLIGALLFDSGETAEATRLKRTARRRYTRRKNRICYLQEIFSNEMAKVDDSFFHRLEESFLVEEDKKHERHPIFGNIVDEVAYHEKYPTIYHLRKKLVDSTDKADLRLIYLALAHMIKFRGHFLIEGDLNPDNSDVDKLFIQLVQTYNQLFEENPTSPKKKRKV
# Legend:
# [1] = system: GFP reporter in HEK-RT1 cells; test: rapid mammalian genome editing reporter assay (HEK-RT1, GFP disruption); assay type: cell-based, human
# Text: To establish a rapid and quantitative way to reliably assess genome editing efficiency from various CRISPR-Cas constructs in mammalian cells, a fluorescence-based reporter assay was built. […] To quantify this effect, HEK293T cells were stably transduced with a retroviral vector (LMP-Pten.1524) constitutively expressing GFP (Fellmann et al., 2013), and established monoclonal derivatives.
# Specifically, inducible monoclonal HEK293T-based genome editing reporter cells, referred to as “HEK-RT1,” were established in a two-step procedure. In the first step, puromycin resistant monoclonal HEK-RT3-4 reporter cells were generated (Park et al., 2018). In brief, HEK293T human embryonic kidney cells were transduced at low-copy with the amphotropic pseudotyped RT3GEPIR-Ren.713 retroviral vector (Fellmann et al., 2013), comprising an all-in-one Tet-On system enabling doxycycline-controlled GFP expression. After puromycin (2.0 μg/ml) selection of transduced HEK239 Ts, 36 clones were isolated and individually assessed for i) growth characteristics, ii) homogeneous morphology, iii) sharp fluorescence peaks of doxycycline (1 μg/ml) inducible GFP expression, iv) relatively low fluorescence intensity to favor clones with single-copy reporter integration, and v) high transfectability.
# Since HEK-RT3-4 are puromycin resistant, in the second step, monoclonal HEK-RT1 and analogous sister reporter cell lines were derived by transient transfection of HEK-RT3-4 cells with a pair of vectors encoding Cas9 and guide RNAs targeting puromycin (sgPuro5, sgPuro6), followed by identification of monoclonal derivatives that are puromycin sensitive. In total, eight clones were isolated and individually assessed for i) growth characteristics, ii) homogeneous morphology, iii) doxycycline (1 μg/ml) inducible and reversible GFP fluorescence, and v) puromycin and hygromycin B sensitivity. […] The HEK-RT1 cell line was chosen as rapid mammalian genome editing reporter system for all further assays.
# A guide RNA targeting the GFP fluorescence reporter (sgGFP9) was compared to a non-targeting control (sgNT). […] GFP expression in HEK-RT1 reporter cells was induced for 24-48 hour using doxycycline (1 μg/ml; Sigma-Aldrich), at the indicated days post-editing.
# [2] = system: GFP or RFP expression in E. coli MG1655; test: E. coli CRISPRi GFP/RFP repression assay; assay type: cell-based
# Protocol: Assays were performed using methods like those described by Oakes et al. (2016).
# Endpoint Assay: Cells were picked in biological triplicate into 96 well plates containing 500 μL EZ MOPS plus Carb and CM. Plates were grown in 37° C. shakers for twelve hours. Next, cells were diluted 1:1000 in 500 μL EZ MOPS plus Carb, CM, IPTG and aTc. Two hundred nM aTc was used to induce Cas9-CPs or ProCas9s and 50 μM IPTG levels was used to induce the proteases in a 2 mL deep well blocks and shaken at 750 rpm at 37° C. After an eight-twelve-hour induction and growth period, 20 μL of cells were added to 80 μL of water and put into a 96-well microplate reader (Tecan M1000) at 37° C. and read immediately. Each well was measured for optical density at 600 nm and GFP or RFP fluorescence. GFP expression was normalized by dividing it with OD600. In the case of the time course assays, 150 μL of the 1:1000 dilution was used and placed into a black walled clear bottom plate (3631-Corning) and directly into the Tecan M1000 for a 130× 600 s kinetic cycle of reading. For E. coli single cell analysis, cells from the endpoint time course were run on a Sony SH800 to capture 100,000 events per sample.
# WNV protease = target: T1, WNV protease (Kunjin virus, UniProt P14335); test: immunoblot of ProCas9Flavi activation in HEK293T; assay type: cell-based, human; conditions: HEK293T co-transfected with WNV protease
# T1 construct: expressed in transfected cells; host or cells: HEK293T (293FT)
# T1 sequence (P14335 1506-2124): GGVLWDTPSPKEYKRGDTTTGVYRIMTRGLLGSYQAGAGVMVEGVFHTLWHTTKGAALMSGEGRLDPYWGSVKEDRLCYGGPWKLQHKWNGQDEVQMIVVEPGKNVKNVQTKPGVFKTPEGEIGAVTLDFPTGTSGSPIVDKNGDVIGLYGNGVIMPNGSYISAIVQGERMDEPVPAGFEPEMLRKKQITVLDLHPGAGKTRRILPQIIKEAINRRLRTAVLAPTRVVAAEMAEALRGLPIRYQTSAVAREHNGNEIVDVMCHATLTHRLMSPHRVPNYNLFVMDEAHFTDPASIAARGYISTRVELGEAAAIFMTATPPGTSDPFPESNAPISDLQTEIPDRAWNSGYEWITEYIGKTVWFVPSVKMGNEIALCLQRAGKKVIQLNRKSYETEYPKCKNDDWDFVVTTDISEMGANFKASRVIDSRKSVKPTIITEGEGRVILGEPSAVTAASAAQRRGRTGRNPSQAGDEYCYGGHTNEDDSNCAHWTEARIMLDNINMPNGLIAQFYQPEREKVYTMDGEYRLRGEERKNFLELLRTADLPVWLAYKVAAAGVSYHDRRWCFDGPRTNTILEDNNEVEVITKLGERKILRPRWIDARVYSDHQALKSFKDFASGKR
# T1 sequence (P14335 1375-1505): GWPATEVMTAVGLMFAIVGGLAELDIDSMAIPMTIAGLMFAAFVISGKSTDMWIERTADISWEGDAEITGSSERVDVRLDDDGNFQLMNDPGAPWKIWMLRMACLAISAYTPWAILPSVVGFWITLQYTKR
# Protocol: HEK293T (293FT; Thermo Fisher Scientific) were co-transfected with the indicated plasmids expressing Cas9-wt or ProCas9-Flavi and plasmids expressing dTEV or WNV protease. HEK293T cells were split to reach a confluency of 70%-90% at time of transfection. For transfections in 6-well plates, 1 μg Cas9-sgRNA vector and 0.75 μg protease vector (if applicable) were mixed in 0.4 mL Opti-MEM, followed by addition of 5.25 μg polyethylenimine (PEI; Polysciences #23966). After 20-30 min incubation at room temperature, the transfection reactions were dispersed over the HEK293T cells. Media was changed 12-hour post-transfection. At 36-hour post-transfection, HEK293T were washed in ice-cold PBS and scraped from the plates. Cell pellets were lysed in Laemmli buffer (62.5 mMTris-HCl pH 6.8, 10% glycerol, 2% SDS, 5% 2-mercaptoethanol). Equal amounts of protein were separated on 4%-20% Mini-PROTEAN TGX gels (Bio-Rad, #456-1095) and transferred to 0.2 μm PVDF membranes (Bio-Rad, #162-0177). Blots were blocked in 5% milk in TBST 0.1% (TBS+[…]) for 1 hour; all antibodies were incubated in 5% milk in TBST 0.1% at 4° C. overnight; blots were washed in TBST 0.1%. The abundance of b-actin (ACTB) was monitored to ensure equal loading. […]
# PCSK9 locus = test: editing at the endogenous PCSK9 locus (T7E1 assay, TIDE); assay type: cell-based, human; conditions: guide sgPCSK9-4, WNV protease vs dTEV; A549 and HAP1
# Protocol: Unless otherwise noted, error bars indicate the standard deviation of triplicates, and significance was assessed by comparing samples to their respective controls using unpaired, two-tailed t tests (alpha=0.05). Genome editing quantification using TIDE was carried out as recommended (Brinkman et al., 2014). In brief, indels ranging from −10 to +10 nucleotides were quantified. Parental cells were used as reference for normalization. When reporting TIDE editing efficiencies, only indels with p values <0.01 in at least one replicate were considered true.
molecule,measurement,setting,value
B1,GFP disruption,"[1]; transient transfection, with active or deactivated proteases",GFP disruption only in the presence of the active proteases
same,ProCas9 activation by co-expressed viral proteases,[2]; Cas9-CP199 with protease cleavage site as CP linker,activated by NS2B-NS3 proteases from both Zika and WNV
same,activation (cleavage into two subunits) by immunoblot,WNV protease,vast majority of vigilant ProCas9Flavi was activated and observed as two distinct subunits
B2,genome editing,"[1]; stable expression of WNV protease, out to 8 days",about 35%
same,genome editing efficiency after transient protease transfection,"[1]; stably integrated ProCas9, ZIKV, WNV proteases, mTagBFP2-positive cells",highest genome editing efficiency
same,genome editing,[1]; stably transduced WNV protease (FIG. 4F),over 25%
same,protease-sensitive editing at the PCSK9 locus (T7E1),PCSK9 locus,clear genome editing in the presence of WNV protease
B3,GFP repression activity with TEV protease,"[2]; 7-amino acid TEV cleavage site (ENLYFQ/S) as linker, active TEV vs dTEV",switched from completely off to fully on
